Measured values published in patent publication EP4628095A1 (Xiamen University, dated 2025).

Tests used:
[1] = target: P2-2C-RBD (insect cell expression system); assay: SPR (Biacore 8K), HEV-p239 coupled to CM5 chip (Fig. 10A)
[2] = target: P1-1G-RBD (insect cell expression system); assay: as above
[3] = target: T1, P2-4G-BGTSTIP; assay: SPR (Biacore 8K), HEV-p239 coupled to CM5 chip (Fig. 12)
T1 construct: also called PA-4G-BGTSTIP; VHH-BGTSTIP

Measured: binding result

B1: HEV-p239 protein (other)
chain: IALTLFNLADTLLGGLPTELISSAGGQLFYSRPVVSANGEPTVKLYTSVENAQQDKGIAIPHDIDLGESRVVIQDYDNQHEQDRPTPSPAPSRPFSVLRANDVLWLSLTAAEYDQSTYGSSTGPVYVSDSVTLVNVATGAQAVARSLDWTKVTLDGRPLSTIQQYSKTFFVLPLRGKLSFWEAGTTKAGYPYNYNTTASDQLLVENAAGHRVAISTYTTSLGAGPVSISAVAVLAPHSV
notes: also called HEV-p239 particles; HEV particles
binds: [1] | [2] | [3]
